Like-named read-outs stand apart in the source and are kept apart here. Non-standard residues stand in square brackets, D forms with d. Residues, ends and D or L forms follow the SMILES beside them. *: point of attachment. DOTA = O=C(O)CN1CCN(CC(=O)O)CCN(CC(=O)*)CCN(CC(=O)O)CC1; Oic = O=C(O)[C@@H]1C[C@@H]2CCCC[C@@H]2N1; d2Nal = N[C@H](Cc1ccc2ccccc2c1)C(=O)O; αMeF = C[C@](N)(Cc1ccccc1)C(=O)O; Orn = NCCC[C@H](N)C(=O)O; Ahx = NCCCCCC(=O)O

The Kd is the constant that tells how readily two partners part at equilibrium. For orientation: pEC50 means the EC50 on a negative log10 scale, so that one unit is a factor of ten.

For data set [1], the target named is T1, B1R (Homo sapiens, UniProt P46663).
T1 sequence (P46663 1-353): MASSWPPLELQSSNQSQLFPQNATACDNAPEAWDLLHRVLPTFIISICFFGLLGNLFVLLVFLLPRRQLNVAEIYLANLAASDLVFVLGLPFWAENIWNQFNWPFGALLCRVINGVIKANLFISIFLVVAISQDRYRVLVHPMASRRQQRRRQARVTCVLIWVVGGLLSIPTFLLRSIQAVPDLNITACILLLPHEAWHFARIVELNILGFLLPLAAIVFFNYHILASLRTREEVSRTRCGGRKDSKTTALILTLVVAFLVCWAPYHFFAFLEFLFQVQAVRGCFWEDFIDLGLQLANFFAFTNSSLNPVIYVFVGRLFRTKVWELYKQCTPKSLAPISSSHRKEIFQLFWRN
The arrangement: could detect B1R endogenously expressed in glioblastoma cells. As to conditions: B1R+ HEK293T cell membrane; read-out: binding affinity (Kd); cited from earlier work. The source says:
(§1) Our study has several potential limitations. […] Although we could not evaluate the diagnostic utility of [^111In]In-DOTA-Ahx-R954 by comparing it with previously reported probes for SPECT and PET using parameters obtained under the same experimental conditions, improving the ...

Data set [2] deals with T1, B1R. The arrangement: could detect B1R endogenously expressed in glioblastoma cells; host or cells: U87MG human glioblastoma cells (intact, adherent). The settings on record: lung fibroblast cell membrane; read-out: binding affinity (Kd); cited from earlier work.
Description: as §1

A further data set deals with U87MG tumour xenografts. Also noted: species or system BALBc nu/nu male mice. The settings on record: mouse, in vivo.
Data set [3] addresses T1, B1R. The experiment in a line: Saturation binding assay with Scatchard analysis on U87MG cells. Also noted: could detect B1R endogenously expressed in glioblastoma cells; host or cells: U87MG human glioblastoma cells (intact, adherent). As to conditions: tracer 0.7-358 nM, NSB with 100 µM R954, Scatchard analysis, mean of three independent experiments. The method, then:
The affinity of [^111In]In-DOTA-Ahx-R954 for B1R in the cells was measured using an R954 saturation assay with increasing concentrations of [^111In]In-DOTA-Ahx-R954 (range 0.7–358 nM). The Scatchard plot was used to estimate the Kd and Bmax values. The parameters were presented as means of three independent experiments (one assay performed on type I collagen-coated plates and two assays performed on Poly-D-Lysine plates).

The next data set deals with U251MG cells. The data set is described as follows: Blocking of [^111In]In-DOTA-Ahx-R954 cell accumulation by B1R antagonist or agonist. The data set is classed as cell-based, human. As to conditions: 100 µM blocker, 120 min, n = 4. The method, then: (§2) Human glioblastoma cell lines U87MG and U251MG were obtained from the American Type Culture Collection (Manassas, VA, USA) and kept under standard cell culture conditions (5% CO2, 37 °C). Cells were cultured in Eagle’s minimum essential medium (E-MEM; FUJIFILM Wako Pure Chemical Co.) supplemented with 10% v/v foetal bovine serum (BioWest S.A.S, Nuaillé, France), 1% v/v nonessential amino acids (FUJIFILM Wako Pure Chemical Co.), 1 mM sodium pyruvate (FUJIFILM Wako Pure Chemical Co.), and 1% v/v penicillin–streptomycin (10,000 unit-10 mg/mL; FUJIFILM Wako Pure Chemical Co.). Cells were seeded at a density of 1 × 10^5 cells/well in Poly-D-Lysine 24-well plates (Corning Inc., Corning, NY, USA). After 24 h, the medium was removed, and the cells were washed with 500 μL of 0.01 M PBS (+) (FUJIFILM Wako Pure Chemical Co.) and incubated at 37 °C in 500 μL of Hanks Balanced Salt Solution (+) (HBSS (+); FUJIFILM Wako Pure Chemical Co.) for 10 min. […] The value at 0 min was determined by an assay performed using the same protocol as that used immediately after removing the incubation solution. Cell lysate radioactivity was measured using an auto-well gamma counter (2470 WIZARD^2; PerkinElmer, Inc., Shelton, CT, USA), and the protein content of the lysates was measured using a Pierce™ BCA protein assay kit (Thermo Fisher Scientific, Inc., Waltham, MA, USA). […]

In another data set the test system is U87MG cells. The description is as above. The data set is classed as cell-based, human. As to conditions: 100 µM blocker, 120 min, n = 4. The method, then: as §2
The subject of data set [4] is B1R. As to conditions: B1R agonist; cited from earlier work.

Description for U87MG tumour xenografts: Five-week-old BALBc nu/nu male mice (Japan SLC, Inc., Hamamatsu, Japan) were xenografted by subcutaneous injection of U87MG cells (5 × 10^6 cells per 50 μL of culture medium) into their right hind legs. The mice were subjected to biodistribution studies when the tumour weight reached 0.1−0.5 g.
Mice bearing U87MG tumour xenografts were injected via the tail vein with 100 μL of [^111In]In-DOTA-Ahx-R954 (30–74 kBq; 0.01–0.02 nmol) and were sacrificed and dissected 1, 4, and 24 h after administration. […] R954 was co-injected with [^111In]In-DOTA-Ahx-R954, and mice were sacrificed and dissected 1 and 4 h after administration. The tissues of interest were removed and weighed, and radioactivity was determined using an auto-well gamma counter. The results are presented as a percentage of the injected dose per gram (% dose/g).

Take [^3H](des-Arg^10, Leu^9)-kallidin: the Kd was 1.9 ± 0.5 nM in the data set with B1R [1] and 0.33 ± 0.07 nM with B1R [2].

With `CC[C@H](C)[C@H](NC(=O)[C@@H](Cc1ccc2ccccc2c1)NC(=O)[C@H](CO)NC(=O)[C@](C)(Cc1ccccc1)NC(=O)CNC(=O)[C@@H]1CCCN1C(=O)[C@@H]1C[C@@H]2CCCC[C@@H]2N1C(=O)[C@H](CCCNC(=N)N)NC(=O)[C@H](CCCN)NC(=O)CCCCCNC(=O)CN1CCN(CC(=O)O)CCN(CC(=O)O)CCN(CC(=O)O)CC1)C(=O)O` [[^111In]In-DOTA-Ahx-R954, metal not drawn] ({DOTA-Ahx}-[Orn]R[Oic]PG[αMeF]S[d2Nal]I-OH), in the data set on U87MG tumour xenografts, the blood-brain barrier penetration result was “poor”, the “reduction of radioactivity level in plasma compared to 1 h” value is given as 98% and the “reduction of radioactivity level in tumour compared to 1 h” value was 48%. On B1R [3], this compound gave a Kd of 54.1 ± 18.9 nM.

On to [des-Arg^10]-kallidin, for which the “change in accumulated radioactivity in blocking study” value in the data set with U251MG cells is given as “not in U251MG cells”; in the data set with U87MG cells, “significant decrease”. In addition, the pEC50 in the data set with B1R [4] was 9.7.

The values are drawn from article PMC11279923, “Assessment of Radiolabelled Derivatives of R954 for Detection of Bradykinin B1 Receptor in Cancer Cells: Studies on Glioblastoma Xenografts in Mice” (Pharmaceuticals, 2024).
